According to the DeepSol protein solubility set:

Assay: soluble on expression in E. coli; label from the status in PepcDB or PDB records

Sequence | soluble on expression in E. coli
MKNVKTIAAAVVLATMTFGASAAEYVSPSQAQNLEKAGVVTATAQDLSSLQSQLAAKAEKAGAKAYTITSATGNDQLRGSAVIFN | not soluble
MGSDKIHHHHHHMKILWITSVYPSSMKPGEGVFHETQVQELQKLGLDITVICPRPFHSAPVRMLKKTYRKKDVRPEYEIRKGIPVYRPFYRAVPGQLKWAQPHRRIASAVLKTMKQRDLYPDLIHAHFAMPSGGAAAVVSESAQIPYVLTLHGSDVNVYPHYSKGAFKAFKRAVGSASVVLAVSHKLQEEAKKLSGFDSSVLPIGIQLSRFQGNEETKEEIRKRLGLPLDQRLAVYVGRLVREKGIFELSEAIESLQDSPKAVFVGDGPAKSTLTQKGHIVTGQVPNHQVRDYLLAADLFVLPSYSEGMPTVVIEALALRVPVICTDVGGVSSLFGKHQHLLIKPKSAQALAEAITRYEHEQIWKPEVADDLYETVQAQFDAGKNAKALHHQYQTVTKTSV | not soluble
MKKIIAILLLVIGSIGIGKDLDQYESKRVFDKIIEVALTGDYEKYKNDKEMTNALEELVKASEYLDVHRIFSDGNKYIVLDVEEQGNRSILTVKAVYKIYRDISEEKYRQIMEREVLELMKYDMEEIDEKTYKKNVYNIITDIAGNDFEIKEEVIKMNMIKKEKWDMEDNSDLIQRLYPAIFYMMESLNKRYFKTSEEGNI | not soluble
MNECAFGTKDPVYLNYHDHVWGQPLYDSKALFKLLALESQHAGLSWLTILKKKEAYEEAFYDFEPEKVAQMTAQDIDRLMTFPNIVHHRKKLEAIVNQAQGYLKIEQAYGSFSKFLWSYVNGKPKDLQYEHASDRITVDDTATQLSKDLKQYGFKFLGPVTVFSFLEAAGLYDAHLKDCPSKPKHN | soluble
AKIYDKNGELVKTLDNGQRHEHVNIKDVPKDMKNAVLATEDNRFYQHGALDYKRLFGAIGKNLTGGFGSQGASTLTQQVVKDSFLTQQKSIGRKAQEAYLSYRLEQEYSKDEIFQVYMNKIYYSDGVTGIKAAAKYYFNKDMKDLNLAEEAYLAGLPQVPNLYNIYNNP | not soluble
MSLDKVERRLYELYEKAINYEPLSKEEALYILEVDDIYVPFLVHLAQKIKKHYFPENEVEFCSIINAKSGACSEDCKFCAQSKYYKTPINVYNLVPVDEMVEGAIRGVEFGANRYCIVLSGKSATKEEVERITEAVKEIKNEGLPINVCVSAGTLDEESLKKLKEAGVKRINHNLETSRNFFKNIVTTHTWEDRYETIKRIKKVGLSTCSGGIFGMGESNEDRVDMALTYRELEVDSIPLNFLMPIEGTPMENAPGVEVMEALKIIAMFRFTNPKAELRLCGGREQNLRDFHGMATLMTNAMMVGGYLTRAGRDIKKDYQLLKDLKAKRKVSVEEGHHHHHH | soluble
GMPDSPTLLDLFAEDIGHANQLLQLVDEEFQALERRELPVLQQLLGAKQPLMQQLERNGRARAEILREAGVSLDREGLARYARERADGAELLARGDELGELLERCQQANLRNGRIIRANQASTGSLLNILRGQDAPSLYDSRGGTASSSRQRPLSQA | soluble
GAMMPVPNPTMPVKGAGTTLWVYKGSGDPYANPLSDVDWSRLAKVKDLTPGELTAESYDDSYLDDEDADWTATGQGQKSAGDTSFTLAWMPGEQGQQALLAWFNEGDTRAYKIRFPNGTVDVFRGWVSSIGKAVTAKEVITRTVKVTNVGRPSMAE | soluble
MAHHHHHHMTALITKQRYNWMGYDGVESAVCDTALLRSDGGPANNYNYMHRQQVIMEVKERLYRIKRDLGLIPEEELRAEERAIQRRRMEKKRREEEERIRKEAEEAARAEEMERRHLELEEAEERASAEEVATQASAEHKHYMNDSDEDSDEENGIDDEQSASLVAMLRTQEEIDSAIAGFTKGTRMLLASSGNGYVSYLDGSVHFTIAKVESHNASNREKVMQALAGTNVAMPTAEEYSLEEVRQAMHDRDTARKKLDALRALQDPTYTARIRSAEKDTYGTPVQQLMEEDGDMSALVANCEDAKRFAESVRKAYNSRAAASAHALACALCTPPFTAEQESTSEAQAPAGKMANAEDGVSQPTGANSPSSSTSAQ | not soluble
MRLNIVVVGVGGQGALTTSGIIARAAMRAGLNVVTAETHGMAQRGGSVEVHVRIGDVRAPLIPEGGADVMIALEPAEALRYAKFLNKNTLVILNTRKIIPPSVTAGTAKYPELDEIIGELRKVTPRVIPVNASEIAEKAGSVLATNVVVVGMLFGYYSMPFGIEHVEEAIRETMKSKIVDLNLKALKMGYNQAI | not soluble
VQLLESGPGVVKPSETLSLTCTVSGASVNNYYWTWVRQPPGKGLEWIGNVYDSGDTNYNPSLSSRLSLSMDTSKNQFSLRLSSVTAADTATYYCARYHRHFIRGPLSFDYWGRGTLVTVSSASTKGPSVFPLAPSSKSTSGGTSALGCLVKDYFPEPVTVSWNSGALTSGVHTFPAVLQSSGLYSLSSVVTVPSSSLGTQTYICNVNHKPSNTKVDKKVEPKSCDKTS | soluble
GPGSMNQLVVFLDIDNTLYSGEEYHSLAEQIRDGLVEYVGNWLQLTPQESEAYVVHCFEKYGLTIAGLMHEQKGFDAEAATDFLYSHCDFSHLQENPRLREMLSRLRRNHHLYFFTNASRRHATTVLQALGLSSDEFRMSGFTYEDQWAQTAPVPCNKPMRNAYIAVIKVLKKWLQDAEWVTAECMVMVDDSACNLIEPLALGLNAVWVSHGHPISDVLAEKMNTGRLFCITDIIELEDIIKQITINREN | soluble
RVKGTFNKYSQLRSMSGMNGAQVAQRVLQAAGIYDVQVRHVSGSLTDHYDPRTKTVNLSDPVYNATSVAALGVAAHECGHAIQHAKSYAPLSIRS | not soluble
MGSDKIHHHHHHMPAYKVLQKGKTGDLLNVKHLYIKDIQSGEKVQDSFLVTEKNVAYSQKGAPYLNLRLKDKTGQVDGKIWDNALEWDKRFRKGDVVQVNARAVSFRNSLQLSILSLNTLDDSEVILNDYVPTTRMNVEVMFSELQSIIDRIDTPPLKKLLKSFFDDREIAERFKRAPAAKGFHHIYLGGLLEHTHSVTRLLSQIASHYPGVNRDLLLTGGILHDIGKINEFSYDRLVEYSDEGRLIGHIIIGVEMIDEKITAIPDFPAYLAMELRHLILSHHGILEYGSPKRPKTLEALMVHYVDDLDAKVNAFQEYLNDFRDEDTGWTPFHRFLERYLYRGRVQEITAEEPISPKEF | not soluble
MCAKIALLLVLVGAASAAVLPDKFYGTFDLDHSENFDEYLTAKGYGWFTRKLVTFATFKKVFTKTSNKNLFDYSNLTSKKDVHYKNVQLGKAFQGEGLDSTKHEITFTLKDGHLFEHHKPLEGGDAKEETYEYLFDKEFLLVRMSFNGVEGRRFYKRLP | not soluble
SDVVEVVGSWWAQEREDIIMKYEKGHRAGLPEDKGPKPFGSYNNNIDHFGMQHETELPPLTAREVKQIRREISRKSKWVKMLGEWDTYKNSRKLIDRAYQGIPMNIRGPMWSVLLNIEEIKLKNPGRYQIMKEKGKRSSEHIQQMDLDVSGTLRRHIFFRDRYGTKQRELLYILLAYEEYNPEVGYCRDLSHIAALFLLYLPEEDAFWALVQLLASERHSLQGFHSPNGGTVQGLQDQQEHVVATSLPKTMWHQDKKDLCGQCSSLGCLIRILIDGISLGLTLRLWDVYLVEGEQAFMLITKSPLRFSRSASRRRPGVARGHVFGTGSLMPGPGMMTLCSSILGPL | soluble
MDVDRLMRDLSVEQLENIQQNLEKEMEGKRESLREMVGRRYRDVLEASSEVRHVCSLADKLASDIANTRVGYQSTHVRTGGREEQKAGEHLYAVNYLVSSIGGDSGEPLDDVVALCMVEHLQKQLISNHSSPMIHKNARALTNRIVATRSELEFQNCSTLLDISRSDWATNQLAAIALLQGKDISQLLELYLEKRFEHVTHLIEDSATILNIVDEMKKTLAVVEELFVHGELIHAIHSVCNGQYKCELIREMCADQAYSFEKTINEDMDRVWRHLREKLSGRGAGTLPSQLVGEKCAAWIEKTCAVTHKLVAEVCEYFDNLDQIIDLLQAITASLKQDWPRIGSNRSVYDKLLQTAVVDKAKILLIQMIESIELFAKKRFESTSDGPQTAIFDERTYHPDSQSHIGISTQLYNCVKTLWESLEQTNEKCAQFETICTPMADMATSNALKETMATNVLQLLLRLCELHSDKQEGSARFLARARLALALVHSESTLICKLLDKDSQRITSLNQRLHSIIEKNLG | not soluble
MKYVLIQATDNGILRRAECGGAVTALFKYLLDKKLVDGVLALKRGEDVYDGIPTFITNSNELVETAGSLHCAPTNFGKLIAKYLADKKIAVPAKPCDAMAIRELAKLNQINLDNVYMIGLNCGGTISPITAMKMIELFYEVNPLDVVKEEIDKGKFIIELKNGEHKAVKIEELEEKGFGRRKNCQRCEIMIPRMADLACGNWGAEKGWTFVEICSERGRKLVEDAEKDGYIKIKQPSEKAIQVREKIESIMIKLAKKFQKKHLEEEYPSLEKWKKYWNRCIKCYGCRDNCPLCFCVECSLEKDYIEEKGKIPPNPLIFQGIRLSHISQSCINCGQCEDACPMDIPLAYIFHRMQLKIRDTLGYIPGVDNSLPPLFNIERLEHHHHHH | soluble
MGSDKIHHHHHHMAKCNAVAGFNALNGVQLNLFTTDELKAIHYATMEVLMDPGIQVSDPEARQIFKENGCEVNEQTNVVKIPEYLVRRALQLAPSRFVLWGRDKKYNTVQEAGGKVHWTCFGTGVKMCKYQEGKYVTVDSVEQDIADIAKLCDWAENIDYFSLPVSARDIAGQGAQDVHETFTPLTNTAKHFHHIDPVGENVEYYRDIVNAYYGGDEEEARKKPIFSMLLCPTSPLELSVNACQVIIKGARFGMPVNVLSMAMSGGSSPVYLAGTLVTHNAEVLAGITLAQLTVPGAKVWYGSSTTTFDLKKGTAPVGSPELGLISASVAKLAQFYGLPAFVAGT | not soluble
MSTSSLRRQMKNIVHNYSEAEIKVREATSNDPWGPSSSLMSEIADLTYNVVAFSEIMSMIWKRLNDHGKNWRHVYKAMTLMEYLIKTGSERVSQQCKENMYAVQTLKDFQYVDRDGKDQGVNVREKAKQLVALLRDEDRLREERAHALKTKEKLAQTATASSAAVGSGPPPEAEQAWPQSSGEEELQLQLALAMSKEEADQEERIRRGDDLRLQMAIEESKRETGGKEESSLMDLADVFTAPAPAPTTDPWGGPAPMAAAVPTAAPTSDPWGGPPVPPAADPWGGPAPTPASGDPWRPAAPAGPSVDPWGGTPAPAAGEGPTPDPWGSSDGGVPVSGPSASDPWTPAPAFSDPWGGSPAKPSTNGTTAGGFDTEPDEFSDFDRLRTALPTSGSSAGELELLAGEVPARSPGAFDMSGVRGSLAEAVGSPPPAATPTPTPPTRKTPESFLGPNAALVDLDSLVSRPGPTPPGAKASNPFLPGGGPATGPSVTNPFQPAPPATLTLNQLRLSPVPPVPGAPPTYISPLGGGPGLPPMMPPGPPAPNTNPFLL | soluble
MGSDKIHHHHHHMSEEIELKFIVHPDSVESLLTQLAEWESDYSQYEHMRAQRLSNIYYETADNYLRRNGIGLRIRGENERYEMTAKTAGKVIGGLHQHPEYNVALETAELDLSLFPAEIWPEDCDVKTLQPSLNPLFSTDFTREKWVFTYYQSVIEVALDRGEIRAGDLSEPLCELEMELKVGQTTHLLALAKEIAEFGGMRQGSLSKAARGYHLAKGNPVRECLPLNRLVVDSKTNIDQAIRAALELALSHWQYHEELWVRGDSSAREALPQASALMREMLVLVGGVVLRRVTTLFRSALSTLENRLQGSGGSEICYSTDYLQSKLVLTSWLVESGWRDYMDNKDRIKLQGSFKRFADIMLSRSTAELKSAFSSKLTAEQYEQQIPRLQRNLYAFLLLSGAYPADQVEAYVEHWQTLLQEIEHLAVDQAPSVYLEAYRKEVLTLPPFWLHSGGPSQ | not soluble
